According to patent US20130122013A1 (Eli Lilly, published 2013):
One block for each molecule: values may come before it.

Tests used:
human ferroportin 1 [1] = target: T1, human ferroportin 1 (human, UniProt Q9NP59 1-571); test: inhibition of binding of 30 nM biotinylated hepcidin to FPN/293 cells, ELISA of lysate; control antibody at 2000 nM; mean
T1 sequence: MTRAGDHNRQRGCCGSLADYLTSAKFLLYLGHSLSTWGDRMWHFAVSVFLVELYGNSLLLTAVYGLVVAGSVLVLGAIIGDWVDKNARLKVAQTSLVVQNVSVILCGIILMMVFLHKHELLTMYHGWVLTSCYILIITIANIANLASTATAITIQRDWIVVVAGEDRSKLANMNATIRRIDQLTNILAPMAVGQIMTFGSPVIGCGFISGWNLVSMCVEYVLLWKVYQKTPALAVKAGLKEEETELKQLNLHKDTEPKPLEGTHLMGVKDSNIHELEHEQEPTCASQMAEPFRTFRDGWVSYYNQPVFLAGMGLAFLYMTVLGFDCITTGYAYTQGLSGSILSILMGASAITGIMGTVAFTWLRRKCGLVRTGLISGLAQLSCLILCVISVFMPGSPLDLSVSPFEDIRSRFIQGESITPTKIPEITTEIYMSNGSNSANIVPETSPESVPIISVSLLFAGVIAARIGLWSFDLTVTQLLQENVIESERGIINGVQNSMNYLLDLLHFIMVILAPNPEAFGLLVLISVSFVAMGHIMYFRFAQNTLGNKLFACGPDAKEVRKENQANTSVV

human ferroportin 1 [2] = target: T1, human ferroportin 1; test: inhibition of binding of 30 nM biotinylated hepcidin to FPN/293 cells, ELISA of lysate; control antibody at 125 nM; mean
human ferroportin 1 [3] = target: T1, human ferroportin 1; test: inhibition of binding of 30 nM biotinylated hepcidin to FPN/293 cells, ELISA of lysate; control antibody at 31.25 nM; mean
human ferroportin 1 [4] = target: T1, human ferroportin 1; test: inhibition of binding of 30 nM biotinylated hepcidin to FPN/293 cells, ELISA of lysate; control antibody at 7.8 nM; mean
human ferroportin 1 [5] = target: T1, human ferroportin 1; test: inhibition of binding of 30 nM biotinylated hepcidin to FPN/293 cells, ELISA of lysate; control antibody at 500 nM; mean
[6] = target: T2, human FPN1 C-terminally fused with GFP (human, UniProt Q9NP59 1-571, GFP reporter fused to the C-terminus ("FPN1 is C-terminally fused with GFP"). It is left out because the patent gives no letters for it.); test: SPR, Biacore T100, 25 C, 1:1 model; FPN1-GFP captured from cell lysate on rabbit anti-GFP antibody, Mab injected
T2 construct: Expressed inducibly in T-REx HEK 293 cells; In the SPR assays it was captured from the detergent lysate of the induced cells on an anti-GFP antibody; also called FPN1-GFP; FPN-GFP; not shown: GFP fused to the C-terminus, and any linker between FPN1 and GFP
T2 sequence: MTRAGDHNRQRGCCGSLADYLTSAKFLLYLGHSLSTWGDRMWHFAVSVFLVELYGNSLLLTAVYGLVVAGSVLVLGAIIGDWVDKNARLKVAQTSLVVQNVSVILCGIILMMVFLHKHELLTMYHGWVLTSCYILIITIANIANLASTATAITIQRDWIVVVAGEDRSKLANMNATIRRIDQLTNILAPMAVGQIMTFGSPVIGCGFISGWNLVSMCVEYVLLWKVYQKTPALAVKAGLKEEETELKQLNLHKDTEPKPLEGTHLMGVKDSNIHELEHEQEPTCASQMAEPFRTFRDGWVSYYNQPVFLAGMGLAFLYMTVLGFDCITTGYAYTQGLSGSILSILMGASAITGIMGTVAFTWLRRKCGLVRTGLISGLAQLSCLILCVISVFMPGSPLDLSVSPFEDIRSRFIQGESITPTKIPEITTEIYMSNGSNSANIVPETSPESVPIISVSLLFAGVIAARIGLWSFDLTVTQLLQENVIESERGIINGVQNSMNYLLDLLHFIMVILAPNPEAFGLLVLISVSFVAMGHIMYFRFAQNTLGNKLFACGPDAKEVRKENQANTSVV

peptide FpnE3a = target: T3, peptide FpnE3a (human); test: dot blot: peptide spotted on nitrocellulose, probed with Mab 34A9, IR700-labeled goat anti-mouse detection
T3 peptide: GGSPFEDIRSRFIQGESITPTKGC
Protocol: (§1) For each peptide, 3 μl of 1-5 μg/mL peptide is spotted onto a piece of nitrocellulose membrane and air dried. The membrane is blocked with blocking buffer (e.g., PBS containing 1% BSA), then incubated with 3-5 μg/mL FPN1 antibody in blocking buffer at room temperature for an hour. The membrane is washed three times, 5 min each, with 1×PBST (10 mM sodium phosphate, 150 mM NaCl, 0.1% Tween-20, pH 7.4) before it is incubated with IR700-labeled-Goat-anti-Mouse antibody according to manufacturer's protocol (LiCor, Inc; Lincoln, Nebr.). The membrane is washed three times, five minutes each, with 1×PBST, is imaged on Odyssey imaging system and Odyssey software (LiCor, Inc).

peptide 0708L4D = target: T4, peptide 0708L4D (human); test: as above
T4 peptide: GGRSRFIQGESITPTKGC
Protocol: as §1

peptide 060719Z = target: T5, peptide 060719Z (human); test: as above
T5 peptide: GGSPFEDIRSRFIQGC
Protocol: as §1

peptide 0708L4C = target: T6, peptide 0708L4C (human); test: as above
T6 peptide: GGEDIRSRFIQGESITGC
Protocol: as §1

[7] = target: T2, human FPN1 C-terminally fused with GFP; test: cell-based or functional assay
[8] = target: T2, human FPN1 C-terminally fused with GFP; test: cell-based or functional assay; remark: listed apart in the source
[9] = target: T2, human FPN1 C-terminally fused with GFP; test: SPR, Biacore T100, 37 C, 1:1 model; FPN1-GFP captured from cell lysate on rabbit anti-GFP antibody, Fab injected
Protocol: (§2) The affinities of FPN1 binding Fabs and Mabs may be determined on Biacore T100 and using 1:1 binding model in the Biacore T100 evaluation software (BIAcore® AB, Upsala, Sweden). […] FPN1 is C-terminally fused with GFP. Expression of FPN1-GFP is induced by 1-10 ng/mL doxycycline for 1-24 hours. Induced cells are harvested by scraping off from flasks and then washed with 1×PBS. Cell pellets can be stored at −80° C. before use. About five million induced cells are resuspended in 10 mM phosphate buffer with 0.2% Tween-20 and protease inhibitors, e.g., Complete™ Protease Inhibitor Cocktail Tablet (Roche Diagnostics Corp., Indianapolis, Ind.). Three cycles of freeze/thaw/sonication are used to lyse the cells. The lysate is diluted two-fold with Biacore running buffer and centrifuged to remove debris.
(§3) On Biacore T100, rabbit anti-GFP antibody or goat anti-GFP antibody is immobilized onto flow cell 1 to 4 of a CMS chip at 5000-15000 Rus. FPN1-GFP is captured onto flow cell 2, 3, or 4 from the lysate of induced cells. Flow cell 1 is used as reference. Then all flow cells are injected with different concentrations of antibodies to evaluate the binding and kinetics.

[10] = target: T2, human FPN1 C-terminally fused with GFP; test: SPR, Biacore T100, 37 C, 1:1 model; FPN1-GFP captured from cell lysate on goat anti-GFP antibody, Fab injected; n = 4
Protocol: as §2, §3

[11] = target: T2, human FPN1 C-terminally fused with GFP; test: SPR, Biacore T100, 37 C; KD of Fab 1G9 against KD of Fab 34A9 (Table 4(a))
Description: The affinities of FPN1 binding Fabs and Mabs may be determined on Biacore T100 and using 1:1 binding model in the Biacore T100 evaluation software (BIAcore® AB, Upsala, Sweden). Briefly, the T-REx system, a commercially available tetracycline-regulated expression system without viral transactivators (Invitrogen, Carlsbad, Calif.) is used for stable cell line generation in T-Rex HEK 293 cells. All growth conditions are described in the T-REx manual provided by Invitrogen. FPN1 is C-terminally fused with GFP. Expression of FPN1-GFP is induced by 1-10 ng/mL doxycycline for 1-24 hours. Induced cells are harvested by scraping off from flasks and then washed with 1×PBS. Cell pellets can be stored at −80° C. before use. About five million induced cells are resuspended in 10 mM phosphate buffer with 0.2% Tween-20 and protease inhibitors, e.g., Complete™ Protease Inhibitor Cocktail Tablet (Roche Diagnostics Corp., Indianapolis, Ind.). Three cycles of freeze/thaw/sonication are used to lyse the cells. The lysate is diluted two-fold with Biacore running buffer and centrifuged to remove debris.
On Biacore T100, rabbit anti-GFP antibody or goat anti-GFP antibody is immobilized onto flow cell 1 to 4 of a CMS chip at 5000-15000 Rus. FPN1-GFP is captured onto flow cell 2, 3, or 4 from the lysate of induced cells. Flow cell 1 is used as reference. […]

human ferroportin 1 [12] = target: T1, human ferroportin 1; test: inhibition of binding of 30 nM biotinylated hepcidin to FPN/293 cells, ELISA of lysate
Protocol: (§4) Next, 65 μL of lysing buffer (0.5% Triton X-100, 10 mM EDTA) are added to all the wells and the plates are shaken for 10 minutes. Next, 50 μL of the solution in each well is transferred to individual wells of a streptavidin coated Greiner microtiter plate (60 μL of 2 μg/mL streptavidin (Sigma, St. Louis, Mo.; catalog no. S4762) in PBS, incubated at 4° C. overnight, washed 2 times (0.1% Tween 20, TBS), blocked with casein/PBS), and then incubated for one hour at room temperature. […] After incubating one hour at room temperature, the plate is washed 4× and 50 μL of OPD substrate (Sigma; catalog no. P6912) is added. The reaction is stopped with 100 μL 1 N HCl after 4 minutes. Absorbance at 490 nm (A₄₉₀) is read using an appropriate ELISA plate reader.

human ferroportin 1 [13] = target: T1, human ferroportin 1; test: inhibition of binding of 30 nM biotinylated hepcidin to FPN/293 cells, ELISA of lysate; antibody at 2000 nM; mean
Protocol: as §4

human ferroportin 1 [14] = target: T1, human ferroportin 1; test: inhibition of binding of 30 nM biotinylated hepcidin to FPN/293 cells, ELISA of lysate; antibody at 7.8 nM; mean
Protocol: as §4

human ferroportin 1 [15] = target: T1, human ferroportin 1; test: cell-based or functional assay
human ferroportin 1 [16] = target: T1, human ferroportin 1; test: inhibition of binding of 30 nM biotinylated hepcidin to FPN/293 cells, ELISA of lysate; antibody at 125 nM; mean
Protocol: as §4

human ferroportin 1 [17] = target: T1, human ferroportin 1; test: inhibition of binding of 30 nM biotinylated hepcidin to FPN/293 cells, ELISA of lysate; antibody at 500 nM; mean
Protocol: as §4

human ferroportin 1 [18] = target: T1, human ferroportin 1; test: inhibition of binding of 30 nM biotinylated hepcidin to FPN/293 cells, ELISA of lysate; antibody at 31.25 nM; mean
Protocol: as §4

[19] = target: T2, human FPN1 C-terminally fused with GFP; test: SPR, Biacore T100, 37 C, 1:1 model; FPN1-GFP captured from cell lysate on rabbit anti-GFP antibody, Mab injected
Protocol: as §2, §3

- % Inhibition (human ferroportin 1 [1]): -2.5%
- % Inhibition (human ferroportin 1 [2]): 1.9%
- % Inhibition (human ferroportin 1 [3]): 7.9%
- % Inhibition (human ferroportin 1 [4]): 2.5%
- % Inhibition (human ferroportin 1 [5]): -0.7%
Molecule: control IgG (antibody)

- Kd [6]: 1.18 nM
- koff [6]: 8.16e-05 s⁻¹
- kon [6]: 69000 M⁻¹ s⁻¹
- binding result (peptide FpnE3a): binds
- binding result (peptide 0708L4D): binds
- binding result (peptide 060719Z): binds
- binding result (peptide 0708L4C): binds
- Percent (%) Inhibition of Mature Human Hepcidin-induced Internalization and Degradation, Mab at 7.4 nM [7]: 4.8%
- Percent (%) Inhibition of Mature Human Hepcidin-induced Internalization and Degradation, Mab at 22 nM [7]: 14.1%
- Percent (%) Inhibition of Mature Human Hepcidin-induced Internalization and Degradation, Mab at 67 nM [7]: 23.6%
- Percent (%) Inhibition of Mature Human Hepcidin-induced Internalization and Degradation, Mab at 200 nM [7]: 30.8%
- Percent (%) Inhibition of Mature Human Hepcidin-induced Internalization and Degradation, Mab at 600 nM [7]: 39%
- Relative IC50 of inhibition of hepcidin-25-induced internalization and degradation of FPN1-GFP [8]: 58.9 nM
- Top % Inhibition of hepcidin-25-induced internalization and degradation of FPN1-GFP [8]: 55.2%
B1: Mab 34A9 (antibody, mouse IgG1, kappa, V domains shown)
VH: QVQLKQSGAELVRPGTSVKVSCKASGYAFTNFLIEWLKQRPGQGLEWIGTINPETGGTKYNEKFRGKATLTADKSSSTAYMQLNSLTSDDSAVYFCVREFFDYWGQGTSLTVSS
VL: ETTVTQSPSYLAASPGETITINCRASKSISKYLAWFQEKPGKTNKLLIYAGSTLHSGIPSRFSGSGSGTDFTLTISSLEPEDFAMYYCQQHNEYPYTFGGGTKLELKR
notes: Mouse monoclonal antibody against human FPN1; also called mouse 34A9; mouse Mab 34A9

- Kd [9]: 7.71 nM
- koff [9]: 0.000897 s⁻¹
- kon [9]: 127000 M⁻¹ s⁻¹
- Kd [10]: 2.9 nM
- koff [10]: 0.000497 s⁻¹
- kon [10]: 173000 M⁻¹ s⁻¹
- fold improvement in binding affinity over mouse Fab 34A9 [11]: ~5 fold
B2: Fab 1G9 (Fab, V domains shown)
VH: QVQLKQSGAELVRPGTSVKVSCKASGYAFTSFLIEWLKQRPGQGLEWIGTINPRTGGTKYNEKFRGKATLTADKSSSTAYMQLNSLTSDDSAVYFCVREFFDYWGQGTSLTVSS
VL: ETTVTQSPSYLAASPGETITINCRASKSISKYLAWFQEKPGKTNKLLIYAGSKLHSGIPSRFSGSGSGTDFTLTISSLEPEDFAMYYCFQHNEYPYTFGGGTKLELK
notes: also called mouse 1G9; mouse Fab 1G9

- IC50 (human ferroportin 1 [12]): ~400 nM
- % Inhibition (human ferroportin 1 [13]): 54.7%
- % Inhibition (human ferroportin 1 [14]): -2.8%
- EC50 of inhibition of mature hepcidin induced increase in cellular ferritin, Caco-2 cells (human ferroportin 1 [15]): 360 nM
- Percentage inhibition of mature hepcidin induced increase in cellular ferritin, Caco-2 cells, Mab at 2.22E-7 M (human ferroportin 1 [15]): 25.2%
- Percentage inhibition of mature hepcidin induced increase in cellular ferritin, Caco-2 cells, Mab at 2.47E-8 M (human ferroportin 1 [15]): 3.4%
- Percentage inhibition of mature hepcidin induced increase in cellular ferritin, Caco-2 cells, Mab at 2.7E-9 M (human ferroportin 1 [15]): 10.6%
- Percentage inhibition of mature hepcidin induced increase in cellular ferritin, Caco-2 cells, Mab at 3.0E-10 M (human ferroportin 1 [15]): 7.3%
- Percentage inhibition of mature hepcidin induced increase in cellular ferritin, Caco-2 cells, Mab at 6.67E-7 M (human ferroportin 1 [15]): 29.8%
- Percentage inhibition of mature hepcidin induced increase in cellular ferritin, Caco-2 cells, Mab at 7.4E-8 M (human ferroportin 1 [15]): 12%
- Percentage inhibition of mature hepcidin induced increase in cellular ferritin, Caco-2 cells, Mab at 8.0E-9 M (human ferroportin 1 [15]): 14.9%
- Percentage inhibition of mature hepcidin induced increase in cellular ferritin, Caco-2 cells, Mab at 9.0E-10 M (human ferroportin 1 [15]): 8.6%
- % Inhibition (human ferroportin 1 [16]): 21.8%
- % Inhibition (human ferroportin 1 [17]): 64.7%
- Percent (%) Inhibition of Mature Human Hepcidin-induced Internalization and Degradation, Mab at 7.4 nM [7]: 28.1%
- Percent (%) Inhibition of Mature Human Hepcidin-induced Internalization and Degradation, Mab at 22 nM [7]: 50.2%
- Percent (%) Inhibition of Mature Human Hepcidin-induced Internalization and Degradation, Mab at 67 nM [7]: 55.7%
- Percent (%) Inhibition of Mature Human Hepcidin-induced Internalization and Degradation, Mab at 200 nM [7]: 63.8%
- Percent (%) Inhibition of Mature Human Hepcidin-induced Internalization and Degradation, Mab at 600 nM [7]: 66.4%
- Absolute IC50 of inhibition of hepcidin-25-induced internalization and degradation of FPN1-GFP [8]: 13.7 nM
- Relative IC50 of inhibition of hepcidin-25-induced internalization and degradation of FPN1-GFP [8]: 10.2 nM
- Top % Inhibition of hepcidin-25-induced internalization and degradation of FPN1-GFP [8]: 86.8%
- % Inhibition (human ferroportin 1 [18]): 4%
- Kd [19]: 3.37 nM
- koff [19]: 0.0011 s⁻¹
- kon [19]: 325000 M⁻¹ s⁻¹
B3: Mab 3D8 (antibody, human IgG4 S228P, kappa, F234A L235A, V domains shown)
VH: QVQLVQSGAEVKKPGSSVKVSCKASGYAFTSFLIEWVRQAPGQGLEWMGTSNPRTGGTKYKEKFRGRVTITADKSTSTAYMELSSLRSEDTAVYYCAREFFDYWGQGTTVTVSS
VL: DIQMTQSPSSLSASVGDRVTITCRASKSISKYTAWYQQKPGKAPKLLIYAGSKLHSGVPSRFSGSGSGTDFTLTISSLQPEDFATYYCQQHNEYPYTFGGGTKVEIKR
notes: Humanized form of mouse 1G9 with human heavy chain framework VH1-69 and light chain framework O2; also called human 3D8
